Laboratory results: article PMC7526893

Target: FLAG-tagged vasodilator-stimulated phosphoprotein (FLAG-VASP), wildtype (human) (UniProt P50552)
Assay: proximity ligation; 293T cells co-expressing p8-HA and FLAG-VASP or FLAG-N-WASP, fixed with 2% PFA; mouse anti-FLAG and rabbit anti-HA, Duolink In Situ Red kit; dots per positive cell counted

Chain of UniProt P50552 (P50552 whole entry): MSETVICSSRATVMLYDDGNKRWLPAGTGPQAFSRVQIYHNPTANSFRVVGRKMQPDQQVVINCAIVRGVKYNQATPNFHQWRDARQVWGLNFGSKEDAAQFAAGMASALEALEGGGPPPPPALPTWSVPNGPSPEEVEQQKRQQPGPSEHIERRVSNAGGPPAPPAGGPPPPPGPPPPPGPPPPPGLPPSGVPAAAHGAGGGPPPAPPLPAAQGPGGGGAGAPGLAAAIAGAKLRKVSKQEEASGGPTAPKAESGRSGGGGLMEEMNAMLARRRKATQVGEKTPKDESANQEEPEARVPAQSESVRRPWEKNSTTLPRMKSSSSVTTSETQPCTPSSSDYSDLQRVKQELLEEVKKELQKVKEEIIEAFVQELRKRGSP

Substance: HTLV-1 p8 protein, HA-tagged (p8-HA) (natural protein)
- PLA spots per cell (spots per cell): 7
